Legend:
Assay in all cases: multiplex microsphere immunoassay
[1] = biological target: T1, GI.5 VLP (norovirus …)
T1 construct: also called GI.5 Siklos
T1 chain: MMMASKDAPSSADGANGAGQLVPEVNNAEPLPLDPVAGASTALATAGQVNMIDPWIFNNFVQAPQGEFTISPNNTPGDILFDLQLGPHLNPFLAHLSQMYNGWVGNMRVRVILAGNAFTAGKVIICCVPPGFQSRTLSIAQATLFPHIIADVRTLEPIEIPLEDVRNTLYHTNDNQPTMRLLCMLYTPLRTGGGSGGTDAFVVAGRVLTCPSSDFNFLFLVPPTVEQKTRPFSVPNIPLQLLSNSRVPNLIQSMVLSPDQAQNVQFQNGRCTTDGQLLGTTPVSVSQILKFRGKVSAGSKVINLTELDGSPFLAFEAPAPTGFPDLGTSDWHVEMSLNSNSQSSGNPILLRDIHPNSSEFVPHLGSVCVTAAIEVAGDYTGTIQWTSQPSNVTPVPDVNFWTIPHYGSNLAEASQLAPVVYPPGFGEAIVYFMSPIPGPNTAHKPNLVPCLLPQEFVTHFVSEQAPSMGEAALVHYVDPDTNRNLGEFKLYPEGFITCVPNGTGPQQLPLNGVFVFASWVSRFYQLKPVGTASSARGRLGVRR

[2] = biological target: T2, GI.6 VLP (norovirus Hu/GI.6/TCH-099/USA/2003)
T2 construct: also called GI.6 USA
T2 chain: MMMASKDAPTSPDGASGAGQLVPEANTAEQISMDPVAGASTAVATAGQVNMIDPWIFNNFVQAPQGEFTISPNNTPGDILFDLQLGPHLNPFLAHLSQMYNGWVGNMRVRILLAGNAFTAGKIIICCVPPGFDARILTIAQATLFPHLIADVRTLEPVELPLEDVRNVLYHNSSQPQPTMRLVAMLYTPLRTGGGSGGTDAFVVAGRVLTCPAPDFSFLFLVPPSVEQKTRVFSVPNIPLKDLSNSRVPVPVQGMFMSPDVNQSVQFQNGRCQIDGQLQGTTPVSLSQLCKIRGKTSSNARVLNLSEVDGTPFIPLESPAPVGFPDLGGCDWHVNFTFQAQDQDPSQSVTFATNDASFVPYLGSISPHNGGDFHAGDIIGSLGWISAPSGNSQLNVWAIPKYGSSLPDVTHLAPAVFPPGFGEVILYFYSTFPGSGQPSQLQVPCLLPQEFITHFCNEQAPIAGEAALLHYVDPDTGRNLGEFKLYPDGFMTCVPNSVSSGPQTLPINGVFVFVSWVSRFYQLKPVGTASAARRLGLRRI

[3] = biological target: T3, GI.1 VLP (norovirus Hu/GI.1/Norwalk/1968/US, UniProt Q83884 1-530)
T3 construct: also called GI.1 Norwalk; GI.I/Norwalk VLP
T3 sequence: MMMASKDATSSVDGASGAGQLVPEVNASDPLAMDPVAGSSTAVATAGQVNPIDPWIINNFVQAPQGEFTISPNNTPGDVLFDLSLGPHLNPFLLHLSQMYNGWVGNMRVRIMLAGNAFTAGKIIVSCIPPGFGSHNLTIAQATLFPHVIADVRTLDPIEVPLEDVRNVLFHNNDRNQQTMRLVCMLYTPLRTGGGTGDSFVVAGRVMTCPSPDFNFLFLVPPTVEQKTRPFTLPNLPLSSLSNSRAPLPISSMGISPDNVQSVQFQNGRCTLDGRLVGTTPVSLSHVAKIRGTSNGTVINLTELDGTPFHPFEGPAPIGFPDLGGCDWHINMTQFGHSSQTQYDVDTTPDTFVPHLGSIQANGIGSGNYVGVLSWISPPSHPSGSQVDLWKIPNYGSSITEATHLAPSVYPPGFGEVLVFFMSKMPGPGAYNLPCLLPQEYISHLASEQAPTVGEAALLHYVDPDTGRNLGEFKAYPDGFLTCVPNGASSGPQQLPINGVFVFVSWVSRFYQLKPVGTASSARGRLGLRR

[4] = biological target: T4, GI.2 VLP (norovirus Hu/GI.2/Jingzhou/2013401/CHN, UniProt Q04542 1-546)
T4 construct: also called GI.2 Jingzhou
T4 chain: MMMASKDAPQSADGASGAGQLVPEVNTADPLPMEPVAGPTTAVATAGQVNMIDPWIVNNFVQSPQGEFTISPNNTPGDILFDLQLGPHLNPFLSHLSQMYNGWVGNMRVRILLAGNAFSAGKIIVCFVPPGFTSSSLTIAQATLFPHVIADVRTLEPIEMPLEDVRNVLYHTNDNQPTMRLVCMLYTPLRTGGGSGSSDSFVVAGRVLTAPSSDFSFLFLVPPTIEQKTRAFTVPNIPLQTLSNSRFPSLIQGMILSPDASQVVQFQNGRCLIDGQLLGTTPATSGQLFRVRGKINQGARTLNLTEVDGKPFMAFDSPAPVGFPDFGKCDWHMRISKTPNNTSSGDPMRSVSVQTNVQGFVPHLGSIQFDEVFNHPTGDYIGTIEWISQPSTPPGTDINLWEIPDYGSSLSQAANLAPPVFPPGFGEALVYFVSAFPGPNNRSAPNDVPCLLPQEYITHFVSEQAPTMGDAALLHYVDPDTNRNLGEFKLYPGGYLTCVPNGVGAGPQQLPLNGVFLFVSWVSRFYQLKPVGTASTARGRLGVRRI

[5] = biological target: T5, GI.7 VLP (norovirus Hu/GI.7/Providence191/2010/USA)
T5 construct: also called GI.7 Providence
T5 chain: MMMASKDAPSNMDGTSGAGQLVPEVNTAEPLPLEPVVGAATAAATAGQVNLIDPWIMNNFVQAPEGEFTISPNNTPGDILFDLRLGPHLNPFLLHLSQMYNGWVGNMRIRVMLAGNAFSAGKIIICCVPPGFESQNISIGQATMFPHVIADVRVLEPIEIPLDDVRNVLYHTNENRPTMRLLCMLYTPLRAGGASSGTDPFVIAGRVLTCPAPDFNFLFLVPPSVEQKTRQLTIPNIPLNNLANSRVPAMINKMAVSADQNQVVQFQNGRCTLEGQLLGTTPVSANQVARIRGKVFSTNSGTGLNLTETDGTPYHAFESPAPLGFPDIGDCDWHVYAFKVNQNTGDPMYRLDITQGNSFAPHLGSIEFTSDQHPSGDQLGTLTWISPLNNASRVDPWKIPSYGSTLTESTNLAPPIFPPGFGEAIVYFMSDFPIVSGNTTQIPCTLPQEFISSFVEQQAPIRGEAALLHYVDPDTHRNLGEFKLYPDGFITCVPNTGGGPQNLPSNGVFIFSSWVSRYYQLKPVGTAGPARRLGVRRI

Measured: binding result

B1: human mAb 1431 (antibody, V domains shown)
VH: QVQLVQSGGGLVQPGGSLRLSCAASGFAFSNHGMHWVRQAPGKGLEWLSYISGSTGAIHYANSVKGRFTISRDNARNSLDLQMNSLGDEDTAVYYCARDGPRPDGTGYAGPSNDYWGQGTLVSVSS
VL: EIVLTQSPASLSLSPGERATLSCKASRSISIYLAWYQQKPGQAPRLLIYDASYRAIGIPARFSGSGSGTDFTLTISNLEPEDFAVYYCQHRSSWPALTFGGGTKVEI
notes: also called A1431
no binding: all assays above
